Substrate in this data set: NC(=O)C[C@H](N)C(=O)O
Put plainly: purified protein. The note with it: 50 mM Tris-HCl, pH 8.6, 37 °C.

B1: ASPase E (Leunase) (Escherichia coli K-12) (protein)
chain: LPNITILATGGTIAGGGDSATKSNYTVGKVGVENLVNAVPQLKDIANVKGEQVVNIGSQDMNDNVWLTLAKKINTDCDKTDGFVITHGTDTMEETAYFLDLTVKCDKPVVMVGAMRPSTSMSADGPFNLYNAVVTAADKASANRGVLVVMNDTVLDGRDVTKTNTTDVATFKSVNYGPLGYIHNGKIDYQRTPARKHTSDTPFDVSKLNELPKVGIVYNYANASDLPAKALVDAGYDGIVSAGVGNGNLYKSVFDTLATAAKTGTAVVRSSRVPTGATTQDAEVDDAKYGFVASGTLNPQKARVLLQLALTQTKDPQQIQQIFNQY
The term Km denotes the concentration of substrate that gives half-maximal velocity. Broadly, the kcat is the number of substrate molecules converted per active site and unit of time at saturation. In general, kcat/Km refers to the second-order rate constant that governs catalysis at low substrate concentration. With B1, the Km is recorded as 5.788 µM, the kcat turned out to be 7.73 s⁻¹ and the specificity constant (kcat/Km) was determined as 1.34e+06 M⁻¹ s⁻¹.

B2: ASPase A1 (Bacillus licheniformis) (protein)
chain: MNKKVALITTGGTIASRKTESGRLAAGAISGPELAEMCSLPEDVQIDVYPAFQLPSMHITFEHLLELKQTIERVFQNGGYDGAVVTHGTDTLEETAYFLDLTIEDERPVVVTGSQRAPEQQGTDAYTNIRHAVYTACSPDIKGAGTVVVFNERIFNARYVKKVHASNLQGFDVFGFGYLGIIDNDKVYVYQKPLKRDVHQLQRPLPAVDIVKCYLDGDGKFIRAAVREGVEGIVLEGVGRGQVPPNMMADIEQALNQGVYIVITTSAEEGEVYTTYDYAGSSYDLAKKGVILGKDYDSKKARMKLAVLLASYKEGLKDKFCY
B2: the Km was 10.30 µM, the kcat worked out at 24 s⁻¹ and the specificity constant (kcat/Km) is 2.33e+06 M⁻¹ s⁻¹.
